Measured values reported in publication PMC5291249, “Two p53 tetramers bind one consensus DNA response element”.

Legend:
mp53Δ30 = mp53Δ30 (mouse, UniProt P02340 1-360); assay: EMSA (GA cross-linked, IR dye); 25 mM Tris-HCl pH 7.5, 2 mM DTT, 100 mM NaCl, 1 mM ADP, 5 mM MgCl2 (or 20 mM HEPES pH 7.5, 10 mM ADP), 25 C, then 0.025% glutaraldehyde 20 min; 'weaker' refers; details: protein: recombinant; chain copies: 4; label: 5' IR800 both strands; blunt
human p53 (hp53) [1] = target: T1, human p53 (hp53) (Homo sapiens, UniProt P04637 1-393); assay: as above; details: protein: recombinant; chain copies: 4; label: 5' IR800 both strands; blunt
murine p53 (mp53) [2] = target: T2, murine p53 (mp53) (mouse, UniProt P02340 1-390); assay: as above; details: protein: recombinant; chain copies: 4; label: 5' IR800 both strands; blunt
mp53 R273H = mp53 R273H (mouse, UniProt P02340 1-390, R270H); assay: as above; details: protein: recombinant, chain copies: 4
human p53 (hp53) [3] = target: T1, human p53 (hp53); assay: EMSA (GA cross-linked SDS-PAGE); 25 mM Tris-HCl pH 7.5, 2 mM DTT, 100 mM NaCl, 1 mM ADP, 5 mM MgCl2 (or 20 mM HEPES pH 7.5, 10 mM ADP), 25 C, then 0.025% glutaraldehyde 20 min; 'weaker' refers; details: protein: recombinant, chain copies: 4
murine p53 (mp53) [4] = target: T2, murine p53 (mp53); assay: as above; details: protein: recombinant, chain copies: 4
murine p53 (mp53) [5] = target: T2, murine p53 (mp53); assay: EMSA (GA cross-linked SDS-PAGE); multiple tetramers; 25 mM Tris-HCl pH 7.5, 2 mM DTT, 100 mM NaCl, 1 mM ADP, 5 mM MgCl2 (or 20 mM HEPES pH 7.5, 10 mM ADP), 25 C, then 0.025% glutaraldehyde 20 min; 'weaker' refers; details: protein: recombinant; chain copies: 4; blunt
human p53 (hp53) [6] = target: T1, human p53 (hp53); assay: EMSA (GA cross-linked SDS-PAGE); increased vs 2 bp spacer; 25 mM Tris-HCl pH 7.5, 2 mM DTT, 100 mM NaCl, 1 mM ADP, 5 mM MgCl2 (or 20 mM HEPES pH 7.5, 10 mM ADP), 25 C, then 0.025% glutaraldehyde 20 min; 'weaker' refers; details: protein: recombinant; chain copies: 4; blunt
murine p53 (mp53) [7] = target: T2, murine p53 (mp53); assay: as above; details: protein: recombinant; chain copies: 4; blunt
murine p53 (mp53) [8] = target: T2, murine p53 (mp53); assay: EMSA (GA cross-linked SDS-PAGE); among most efficient; 25 mM Tris-HCl pH 7.5, 2 mM DTT, 100 mM NaCl, 1 mM ADP, 5 mM MgCl2 (or 20 mM HEPES pH 7.5, 10 mM ADP), 25 C, then 0.025% glutaraldehyde 20 min; 'weaker' refers; details: protein: recombinant; chain copies: 4
human p53 (hp53) [9] = target: T1, human p53 (hp53); assay: EMSA (GA cross-linked SDS-PAGE); multiple tetramers; 25 mM Tris-HCl pH 7.5, 2 mM DTT, 100 mM NaCl, 1 mM ADP, 5 mM MgCl2 (or 20 mM HEPES pH 7.5, 10 mM ADP), 25 C, then 0.025% glutaraldehyde 20 min; 'weaker' refers; details: protein: recombinant; chain copies: 4; blunt

B1: gadd45_0 (dsDNA)
DNA 1: ATGAAATGAACATGTCTAGGCATGCTGAATTAAT
DNA 2: ATTAATTCAGCATGCCTAGACATGTTCATTTCAT
binding result (mp53Δ30): binds | binding result (human p53 (hp53) [1]): binds | binding result (murine p53 (mp53) [2]): binds

B2: gadd45 RE (Table 1) (dsDNA)
DNA 1: GAACATGTCTAAGCATGCTG
DNA 2: CAGCATGCTTAGACATGTTC
binding result (mp53 R273H): no binding | binding result (human p53 (hp53) [3]): binds | binding result (murine p53 (mp53) [4]): binds

B3: DNA21 (dsDNA)
DNA 1: AGCATTGGCTTTCTGGCCATCAGAGACATGCCTAGACATGCCTAGCTCTGGCATAGAAGAGGCGCT
DNA 2: AGCGCCTCTTCTATGCCAGAGCTAGGCATGTCTAGGCATGTCTCTGATGGCCAGAAAGCCAATGCT
binding result (murine p53 (mp53) [5]): binds | binding result (human p53 (hp53) [3]; blunt): binds

B4: Tigar_NS (spacer removed) (dsDNA)
DNA 1: AGCATTGGCTTTCTGGCCATCAGAGACATGTCCAGACTTGTCTAGCTCTGGCATAGAAGAGGCGCT
DNA 2: AGCGCCTCTTCTATGCCAGAGCTAGACAAGTCTGGACATGTCTCTGATGGCCAGAAAGCCAATGCT
binding result (human p53 (hp53) [6]): binds | binding result (murine p53 (mp53) [7]): binds

B5: DNA6 (no spacer) (dsDNA)
DNA 1: ATGAAATAGACATGCCTAGACATGCCTGAATTAAT
DNA 2: ATTAATTCAGGCATGTCTAGGCATGTCTATTTCAT
binding result (human p53 (hp53) [3]): binds | binding result (murine p53 (mp53) [4]): binds

B6: DNA31 (1 bp spacer) (dsDNA)
DNA 1: AGCATTGGCTTTCTGGCCATCAGAGACATGCCTGAGACATGCCTAGCTCTGGCATAGAAGAGGCGCT
DNA 2: AGCGCCTCTTCTATGCCAGAGCTAGGCATGTCTCAGGCATGTCTCTGATGGCCAGAAAGCCAATGCT
binding result (human p53 (hp53) [3]; blunt): binds | binding result (murine p53 (mp53) [4]; blunt): binds

B7: non-specific control DNA (20 bp) (dsDNA)
DNA 1: TCGATCCTCTATGAATTAT
DNA 2: ATAATTCATAGAGGATCGA
binding result (mp53 R273H; label: 5' IR700 both strands): no binding

B8: MCK RE (dsDNA)
DNA 1: TGGCAAGCCTATGACATGGCCGGGGCCTGCCT
DNA 2: AGGCAGGCCCCGGCCATGTCATAGGCTTGCCA
binding result (human p53 (hp53) [3]): binds

B9: RGC RE (dsDNA)
DNA 1: TGCCTTGCCTGGACTTGCCTGGCCTTGCCT
DNA 2: AGGCAAGGCCAGGCAAGTTCAGGCAAGGCA
binding result (human p53 (hp53) [3]): binds

B10: bax RE (dsDNA)
DNA 1: GGGCTATATTTCACAAGTTAGAGACAAGCCTGGGCGTGGGCTATATT
DNA 2: AATATAGCCCACGCCCAGGCTTGTCTCTAACTTGTGAAATATAGCCC
binding result (murine p53 (mp53) [8]): binds | binding result (human p53 (hp53) [3]): binds

B11: gadd45_1 (dsDNA)
DNA 1: ATGAAATGAACATGTCTGAGGCATGCTGAATTAA
DNA 2: TTAATTCAGCATGCCTCAGACATGTTCATTTCAT
binding result (human p53 (hp53) [1]): binds | binding result (murine p53 (mp53) [2]): binds

B12: DNA1 (dsDNA)
DNA 1: AGACATGCCTAGACATGCCT
DNA 2: AGGCATGTCTAGGCATGTCT
binding result (human p53 (hp53) [9]): binds | binding result (murine p53 (mp53) [5]): binds

B13: p21 RE (dsDNA)
DNA 1: GAACATGTCCCAACATGTTG
DNA 2: CAACATGTTGGGACATGTTC
binding result (murine p53 (mp53) [4]): binds
